The source of these data is paper PMC7532178, “Interaction of protocadherin-15 with the scaffold protein whirlin supports its anchoring of hair-bundle lateral links in cochlear hair cells” (Scientific Reports, 2020).

B1: whirlin-NTR-PDZ1-Hp1 (aa residues 2-265) [mouse] / CDH23 C-terminal peptide (biotin-TTDS-VIMESPLEITEL) [modified: biotin-TTDS (trioxatridecan-succinamic acid spacer) on the N-terminus; biotin-TTDS (trioxatridecan-succinamic acid spacer) on … (parent complex)
chain 1: GAMGSTSNAQLDGLSVSSSSTGSLGSAAAAAGGGGGAGLRLLSANVRQLHQALTALLSEPEREQFTHCLNAYHARRNVFDLVRTLRVLLDSPVKRRLLPMLRLVIPRSDQLLFDQYTAEGLYLPATTPYRQPAWAAPDGAGPGEVRLVSLRRAKAHEGLGFSIRGGSEHGVGIYVSLVEPGSLAEKEGLRVGDQILRVNDKSLARVTHAEAVKALKGSKKLVLSVYSAGRIPGGYVTNHIYTWVDPQGRSTSPPSSLPQPHGSTLRQREDD
chain 2: VIMESPLEITEL
B2: whirlin-NTR-PDZ1-Hp1 (aa residues 2-265) [mouse] / PCDH15-CD2 C-terminal peptide (biotin-TTDS-GANSEQYNTAL) [modified: biotin-TTDS (trioxatridecan-succinamic acid spacer) on the N-terminus; biotin-TTDS (trioxatridecan-succinamic acid … (parent complex)
chain 1: B1 chain 1
chain 2: GANSEQYNTAL
B3: whirlin-NTR-PDZ1-Hp1 (aa residues 2-265) [mouse] / PCDH15-CD3 C-terminal peptide (biotin-TTDS-MGPWNSLHIPMTKL) [modified: biotin-TTDS (trioxatridecan-succinamic acid spacer) on the N-terminus; biotin-TTDS (trioxatridecan-succinamic acid … (parent complex)
chain 1: B1 chain 1
chain 2: MGPWNSLHIPMTKL
B4: whirlin-NTR-PDZ1-Hp1 (aa residues 2-265) [mouse] / PCDH15-CD1 C-terminal peptide (biotin-TTDS-GIDVQPHSQSTSL) [modified: biotin-TTDS (trioxatridecan-succinamic acid spacer) on the N-terminus; biotin-TTDS (trioxatridecan-succinamic acid … (parent complex)
chain 1: B1 chain 1
chain 2: GIDVQPHSQSTSL

Variants of B1 are the subject of one experiment. Kind of experiment: SPR; whirlin construct at 10 μM; peptide immobilized via N-terminal biotin tag; parent: 11; read off a plot.
Regarding chain 1 H208Y, the response is ~1 % site occupancy. As for chain 1 G160A, the response was ~1.5 % site occupancy.

The variants in another experiment derive from B2. Kind of experiment: SPR; whirlin construct at 10 μM; peptide immobilized via N-terminal biotin tag; parent: 15; read off a plot.
As for chain 1 G160A, the response is ~2.5 % site occupancy. As for chain 1 H208Y, the response was ~0.5 % site occupancy.

Variants of B3 are the subject of a further experiment. Kind of experiment: SPR; whirlin construct at 10 μM; peptide immobilized via N-terminal biotin tag; parent: 29; read off a plot.
In the case of chain 1 G160A, the response was ~9.5 % site occupancy. As to chain 1 H208Y, the response is ~1.5 % site occupancy.

The next experiment covers variants of B4. Kind of experiment: SPR; whirlin construct at 10 μM; peptide immobilized via N-terminal biotin tag; parent: 23; read off a plot.
As for chain 1 H208Y, the response is ~-1 % site occupancy. The same measure, in the same setting: the figure for chain 1 G160A is ~2 % site occupancy.
